What was measured:
[1] = system: C[C@@H](N)c1ccccc1; assay: Michaelis-Menten fit; acetophenone by HPLC; format: biochemical, Aspergillus terreus; conditions: phosphate buffer, no DES, pyruvate constant, PLP, pH 8.0, 40 °C
Excerpt: (§1) Michaelis-Menten fit; acetophenone by HPLC on ω-TA variant from Aspergillus terreus (E133A)

[2] = system: CC(=O)C(=O)O; assay: Michaelis-Menten fit; acetophenone by HPLC; format: biochemical, Aspergillus terreus; conditions: phosphate buffer, no DES, 1-(R)-PEA co-substrate, PLP, pH 8.0, 40 °C
Excerpt: as §1

## ω-TA variant from Aspergillus terreus (E133A) (Aspergillus terreus NIH2624; E133A)
[1]
  Km: 650 ± 70 µM
  kcat: 0.8027 ± 0.000833 s⁻¹
  kcat/Km: 1230 M⁻¹ s⁻¹
[2]
  Km: 640 ± 70 µM
  kcat: 0.54967 ± 0.0005 s⁻¹
  kcat/Km: 853 M⁻¹ s⁻¹

Source: paper PMC10180074, “Improved Stability and Catalytic Efficiency of ω-Transaminase in Aqueous Mixture of Deep Eutectic Solvents” (Molecules, 2023)
